Experimental findings from paper PMC2903445 (Proteins, 2010) are described below.

Residue numbers refer to the chain shown, from its start. Names and notes keep the numbering of the source. Like-named read-outs stand apart in the source and are kept apart here. Ends that are not written are not given here.

Among the targets are Gαi1 K248E, S252L (human, UniProt P63096 26-354, K248E | S252L); Gαi1 I78S, A111Q (human, UniProt P63096 26-354, I78S | A111Q); Gαi1 E245L, L249A (human, UniProt P63096 26-354, E245L | L249A).
Common to all, as to test: fluorescence polarisation
(Fluorescence polarisation rises when a labelled molecule tumbles more slowly, as on binding a larger partner.)

Assay [1] has as its target T1, Gαi1 (N-terminal-truncated, hexahistidine-tagged human Gαi1), wild type (human, UniProt P63096 26-354).
The target in assay [2] is T1, Gαi1 (N-terminal-truncated, …). This is another data set of the same source.
The target in assay [3] is Gαi1 F223V, L249F, Q147L, E245L (human, UniProt P63096 26-354, F223V | L249F | Q147L | E245L).
For assay [4], the target named is T2, Gαi1 F223V, L249F (human, UniProt P63096 26-354, F223V | L249F).
Assay [5] deals with T2, Gαi1 F223V, L249F. This is another data set of the same source.

T1 sequence (P63096 26-354): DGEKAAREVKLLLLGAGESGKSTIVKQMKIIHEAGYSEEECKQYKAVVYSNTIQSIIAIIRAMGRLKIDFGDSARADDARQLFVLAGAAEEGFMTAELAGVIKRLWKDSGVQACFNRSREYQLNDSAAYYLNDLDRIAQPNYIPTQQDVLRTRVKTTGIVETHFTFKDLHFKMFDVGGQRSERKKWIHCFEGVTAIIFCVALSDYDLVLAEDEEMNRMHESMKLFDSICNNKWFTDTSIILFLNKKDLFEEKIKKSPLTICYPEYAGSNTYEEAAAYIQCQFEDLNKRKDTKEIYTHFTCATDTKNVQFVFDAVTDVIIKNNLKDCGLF
Sequence of Gαi1 K248E, S252L (P63096 26-354 K248E/S252L): as the sequence (P63096 26-354) above, with K223E, S227L counted along it
T2 sequence (P63096 26-354 F223V/L249F): as the sequence (P63096 26-354) above, with F198V, L224F counted along it
Sequence of Gαi1 E245L, L249A (P63096 26-354 E245L/L249A): as the sequence (P63096 26-354) above, with E220L, L224A counted along it
Sequence of Gαi1 I78S, A111Q (P63096 26-354 I78S/A111Q): as the sequence (P63096 26-354) above, with I53S, A86Q counted along it
Sequence of Gαi1 F223V, L249F, Q147L, E245L (P63096 26-354 Q147L/F223V/E245L/L249F): as the sequence (P63096 26-354) above, with Q122L, F198V, E220L, L224F counted along it

B1: GoLoco motif of RGS14 (496-531, Tenascin fusion) L503K (domain or fragment, UniProt O08773 496-531, looked up)
chain: DIEGLVEKLNRVQSSGAHDQRGLLRKEDLVLPEFLQ
modifications: also: 6-IAF fluorescein on the unique Cys (not in given chain)
One may read the Kd as the constant that tells how readily two partners part at equilibrium. Take B1: the Kd with Gαi1 K248E, S252L amounted to 0.08 ± 0.01 µM.

B2: GoLoco motif of RGS14 (496-531, Tenascin fusion) L504A, F529W (domain or fragment, UniProt O08773 496-531, looked up)
chain: B1 chain with K8L, L9A, F34W
modifications: also: 6-IAF fluorescein on the unique Cys (not in given chain)
Regarding B2, the dissociation constant Kd in assay [1] is approximately 5 µM; in assay [2] it was more than 5 µM; in assay [3] it was 0.04 ± 0.1 µM.

B3: GoLoco motif of RGS14 (496-531, Tenascin fusion) L519T (domain or fragment, UniProt O08773 496-531, looked up)
chain: B1 chain with K8L, L24T
modifications: also: 6-IAF fluorescein on the unique Cys (not in given chain)
Take B3: the dissociation constant Kd was 16 ± 5 µM in assay [2] and more than 20 µM with Gαi1 I78S, A111Q.

B4: GoLoco motif of RGS14 (496-531, Tenascin fusion) V507M (domain or fragment, UniProt O08773 496-531, looked up)
chain: B1 chain with K8L, V12M
modifications: also: 6-IAF fluorescein on the unique Cys (not in given chain)
Take B4: the Kd in assay [2] turned out to be 1.04 ± 0.06 µM; in the assay with Gαi1 E245L, L249A, 0.05 ± 0.01 µM.

B5: GoLoco motif of RGS14 (496-531, Tenascin fusion) L504A (domain or fragment, UniProt O08773 496-531, looked up)
chain: B1 chain with K8L, L9A
modifications: also: 6-IAF fluorescein on the unique Cys (not in given chain)
For the molecule B5, the dissociation constant (Kd) was approximately 5 µM with Gαi1 F223V, L249F [4]; more than 5 µM in the assay with Gαi1 F223V, L249F [5]; 2.4 ± 1 µM in assay [2].

B6: GoLoco motif of RGS14 (residues 496-531) expressed as a fusion to Tenascin, wild type (domain or fragment, UniProt O08773 496-531, looked up)
chain: B1 chain with K8L
modifications: also: 6-IAF fluorescein on the unique Cys (not in given chain)
Consider B6, for which the equilibrium dissociation constant (Kd) in assay [2] was 0.1 ± 0.02 µM; with Gαi1 K248E, S252L it was 0.32 ± 0.06 µM.
